The values below come from patent US20220289850 (published 2022).

The experiment has as its target T1, mouse integrin avb8 (mouse).
T1 chain 1: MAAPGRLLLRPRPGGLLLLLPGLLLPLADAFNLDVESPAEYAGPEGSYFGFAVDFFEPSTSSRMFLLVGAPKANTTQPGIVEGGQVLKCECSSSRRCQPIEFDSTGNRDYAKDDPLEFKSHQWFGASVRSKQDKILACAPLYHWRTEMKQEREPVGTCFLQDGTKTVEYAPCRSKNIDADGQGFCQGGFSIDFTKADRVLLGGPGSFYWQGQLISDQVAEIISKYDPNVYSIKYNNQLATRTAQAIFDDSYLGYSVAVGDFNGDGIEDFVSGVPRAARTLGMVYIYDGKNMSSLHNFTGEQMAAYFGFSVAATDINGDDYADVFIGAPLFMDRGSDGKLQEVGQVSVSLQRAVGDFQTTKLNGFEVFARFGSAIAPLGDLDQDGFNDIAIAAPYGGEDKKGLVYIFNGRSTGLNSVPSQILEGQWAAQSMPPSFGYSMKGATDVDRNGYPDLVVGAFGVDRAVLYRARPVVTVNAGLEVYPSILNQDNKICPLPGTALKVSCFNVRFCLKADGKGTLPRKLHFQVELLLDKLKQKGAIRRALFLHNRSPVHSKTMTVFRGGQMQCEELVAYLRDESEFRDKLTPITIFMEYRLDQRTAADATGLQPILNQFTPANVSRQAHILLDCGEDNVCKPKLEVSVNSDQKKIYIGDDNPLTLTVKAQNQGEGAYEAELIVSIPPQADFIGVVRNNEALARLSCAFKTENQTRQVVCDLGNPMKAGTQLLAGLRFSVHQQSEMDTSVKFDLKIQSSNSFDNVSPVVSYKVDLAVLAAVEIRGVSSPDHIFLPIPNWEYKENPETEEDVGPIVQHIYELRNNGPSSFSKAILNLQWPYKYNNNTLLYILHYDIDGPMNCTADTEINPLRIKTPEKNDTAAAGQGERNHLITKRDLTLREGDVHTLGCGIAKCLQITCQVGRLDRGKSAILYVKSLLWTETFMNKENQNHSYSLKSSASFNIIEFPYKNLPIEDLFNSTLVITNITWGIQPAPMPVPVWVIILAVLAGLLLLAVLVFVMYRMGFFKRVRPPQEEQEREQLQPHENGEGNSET
T1 chain 2: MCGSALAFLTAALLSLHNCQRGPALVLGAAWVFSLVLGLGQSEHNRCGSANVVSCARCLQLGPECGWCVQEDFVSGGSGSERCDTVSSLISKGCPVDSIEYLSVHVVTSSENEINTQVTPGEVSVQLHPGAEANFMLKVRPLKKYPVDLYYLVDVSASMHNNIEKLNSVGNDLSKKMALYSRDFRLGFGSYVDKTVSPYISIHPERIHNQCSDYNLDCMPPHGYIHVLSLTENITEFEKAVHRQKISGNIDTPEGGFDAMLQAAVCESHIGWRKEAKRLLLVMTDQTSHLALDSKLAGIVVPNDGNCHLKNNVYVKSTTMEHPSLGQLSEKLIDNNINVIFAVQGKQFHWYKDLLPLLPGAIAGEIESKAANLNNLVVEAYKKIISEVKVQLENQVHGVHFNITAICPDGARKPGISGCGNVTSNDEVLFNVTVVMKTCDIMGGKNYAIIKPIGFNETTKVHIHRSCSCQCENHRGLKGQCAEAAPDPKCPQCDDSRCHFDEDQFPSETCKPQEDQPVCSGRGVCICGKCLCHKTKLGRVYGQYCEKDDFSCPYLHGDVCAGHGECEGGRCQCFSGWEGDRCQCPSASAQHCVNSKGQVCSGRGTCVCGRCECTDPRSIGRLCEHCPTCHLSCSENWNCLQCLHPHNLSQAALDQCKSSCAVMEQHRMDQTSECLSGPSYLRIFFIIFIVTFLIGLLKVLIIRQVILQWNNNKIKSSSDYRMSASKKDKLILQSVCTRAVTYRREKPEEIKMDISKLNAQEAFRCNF
As to the kind of experiment: FACS C8-S cells.

B1: ADWA11 2.4 IgG (antibody)
chain 1: EVQLVESGGGLVQPGGSLRLSCAASGFNIKDYYMNWVRQAPGKGLEWVGWIDPDQGNTIYEPKFQGRFTISADTSKNSAYLQMNSLRAEDTAVYYCARRLLMDYWGQGTLVTVSSASTKGPSVFPLAPSSKSTSGGTAALGCLVKDYFPEPVTVSWNSGALTSGVHTFPAVLQSSGLYSLSSVVTVPSSSLGTQTYICNVNHKPSNTKVDKKVEPKSCDKTHTCPPCPAPEAAGAPSVFLFPPKPKDTLMISRTPEVTCVVVDVSHEDPEVKFNWYVDGVEVHNAKTKPREEQYNSTYRVVSVLTVLHQDWLNGKEYKCKVSNKALPAPIEKTISKAKGQPREPQVYTLPPSREEMTKNQVSLTCLVKGFYPSDIAVEWESNGQPENNYKTTPPVLDSDGSFFLYSKLTVDKSRWQQGNVFSCSVMHEALHNHYTQKSLSLSPGK
chain 2: DIQMTQSPSSLSASVGDRVTITCRSTKSLSHFNGNTYLFWYQQKPGKAPKRLIYYMSSLASGVPSRFSGSGSGTDFTLTISSLQPEDFATYYCQQSLEYPFTFGGGTKVEIKRTVAAPSVFIFPPSDEQLKSGTASVVCLLNNFYPREAKVQWKVDNALQSGNSQESVTEQDSKDSTYSLSSTLTLSKADYEKHKVYACEVTHQGLSSPVTKSFNRGEC
For orientation: EC50 means the concentration at which the effect is half-maximal. A low value points to higher potency in that assay. Molecule B1 returned an EC50 of 0.145 nM.
